Data: the DeepSol protein solubility set

Test: soluble on expression in E. coli; label from the status in PepcDB or PDB records

Sequence | soluble on expression in E. coli
MASATARGLRKRLTPQEARLWAGLRELKLRGYHFRRRAPIGCYVVDFVCLSAKLVIDADGEQQAMPAHFAADRQRGVVLRRQGFRVLHFWNSDIDRYFEGVMQTVLDALPPPSVRPNVSRTGHSIHEGAGESG | soluble
MGSDKIHHHHHHMAIEITTAEKRLLQRVSIPPRPETLLTVSREAKKSEPDVNVIAESISADMSIAAAVLQVVNSAAYRRAREVDSIQQAVMTLGFRRVFPIVRAVALKSALTSDYDLSEFWRYNEWVAGACVMIAEAIGRPELRDHAYMLGLFQSSGIPVMLAEFDDYADLLNAAESTPWQQVQAKELELFQTSHTTIGALLAQQWKLPKIVVEVIYYLFEDSSIFNHSSELDNLTLDLLGILKISRYAIDLRTRSLAGEEEWQYVQDGVLEHFQIDEFKVDEMLQIVHEELFDTEA | not soluble
MIFGRTERGKPPVEPVTLKILVAGGFGVGKTTLVGAVSEIRPLRTEEVLTEAGRPVDDISGVEGKHTTTVAMDFGRITLREDLVLYLFGTPGQDRFWFLWDELATGALGAVVLADTRRLEDCFAAVDYFERRSIPFVMGVNCFEEAARYPVEDVRRALDLDDDVPVVLCDARDRESVKEVLIDVVRHAMAHAAERRETVSGLEHHHHHH | not soluble
MQLIPFEIPGILVGRFEKCSDNKREDERQRISLLLRRVFPHDTPQIGHLPSGKPILDSAHNISISHTGSYGAIYVTPSSLIPGIDIEMLSDRALRVAPRFMNEREYEWLMSADEARRRLLATIIWSAKETAYKIFNPSDASLKRFDVALPFELPSENTLFSFELIYSDSCTGDIHIPVQALCTGEFILTCACHCSHSR | not soluble
MVRYWIYLLSDDVASHYRHRAEKIVELLREHQYAKAPLKAICRKQVEFITERLSFSRLELGLKQYFAGRVGKNLERNMFVLQNDAGEEALLVVQKRRLLLVADSAPLASDIGRALARLSPTFLAVDADFVDYYWLSAPRQGRKFA | not soluble
MASESAVKDSQPSLDLASATSGDKIVTAQENGKAPDGQTVAGEVMGPQRPRSNSGRELTDEEILASVMIKNLDTGEEIPLSLAEEKLPTGINPLTLHIMRRTKEYVSNDAAQSDDEEKLQSQPTDTDGGRLKQKTTQLKKFLGKSVKRAKHLAEEYGERAINKVKSVRDEVFHTDQDDPSSSDDEGMPYTRPVKFKAAHGFKGPYDFDQIKVVQDLSGEHMGAVWTMKFSHCGRLLASAGQDNVVRIWALKNAFDYFNNMRMKYNTEGRVSPSPSQESLSSSKSDTDTGVCSGTDEDPDDKNAPFRQRPFCKYKGHTADLLDLSWSKNYFLLSSSMDKTVRLWHISRRECLCCFQHIDFVTAIAFHPRDDRYFLSGSLDGKLRLWNIPDKKVALWNEVDGQTKLITAANFCQNGKYAVIGTYDGRCIFYDTEHLKYHTQIHVRSTRGRNKVGRKITGIEPLPGENKILVTSNDSRIRLYDLRDLSLSMKYKGYVNSSSQIKASFSHDFTYLVSGSEDKYVYIWSTYHDLSKFTSVRRDRNDFWEGIKAHNAVVTSAIFAPNPSLMLSLDVQSEKSEGNEKSEDAEVLDATPSGIMKTDNTEVLLSADFTGAIKVFVNKRKNVS | not soluble
MGSDKIHHHHHHVTSQAPVEVMTDIMTKFTSYIGKRLPTDIKEKLADLREAETNPMANVLFDSMAENQEAADKLNRPSCQDTGVIQYFITAGAKFPLLGELEEILRNATLGATKLGPLRHNAVEAFDEKNTGTNTGSRIPWLDWEIVPNDDGVIIDVYMAGGGCTLPGASTVLMPGQGYEGVVDFVFDVVTSRGINACPPLLIGVGVSTSAETAARLSKKAILRPVGSHHDNANAAKMETLLEDGLNELGIGPQGLTGNSSVMGVNIESSARHPSTIGVAVSTGCWAHRRGRIRFNADLSYEIVSHEGVVL | not soluble
MGSDKIHHHHHHMVAIKNFSIKIKDKEPVFTLGEKLTQEQLDFFETHGYIHFKNFLNPETVPAVIKALEDVQEQWIAENREKVNGVPIKYGVDLDGKKIVQRFAFASLFSNVLHELLKDPRLKALYPLLQAKDERIGEFEKDGLVVNHYINSDASSFTKMGWHTDCLRDVFYGKKIMPMLNVGIHLDNYDPKNGGLRIIPGTHKQDLLNLLFRKKYYVSHKPDPDEIGFNITAGDLTVHDGRSWHRVERSPITGEASRRRVMYIPFIGGEYQPKDENSSTQLYQRLSKFVR | not soluble
MTDYDDYEDRSGVVEEELLDFDRAMLDFQAMFPSLSNSHIEYVLRKYDGDVSATINELLYDNTPTTTTSESIPHGGDLTKLRQRRHEINEKLRENQKFLDTVTDVEIARAYEDQQLALLLEHREVNTLISEEKKKKSCSDSSSIQESRRHVKIPGKNSKNSKISVNKAKKLEPRRRSDEDRVPDGPYIGEGEVKSENFAAKIKETLRKASGSRISRLFSAP | not soluble
MAHHHHHHMTTPSSPAHPAAHLCDVTGDTAAAAAAGASGMMADTARMLSPRPSVTRTAAKTSGGPVQVALSQSCPHPHQQHQQHHQHHQHQQHHQHHQHQQHHQHHQHQQHHQHQQHQQHQQPCLGGLLDPFFLTEIDENVQAFSGTAATSGSHTSLSGDGGSPSAKDAALCSPCVECVPPARGKTVRKSRSACELRLECLLSTSMGSDITKDEADDSKRKRRQPSSFPSSSRRDTAGCFSSVEVMGPTDEVAAADEAIATTAATAADAEAGVKSRDPKRRSLLPTWVTARTSTVTRAGAPPTDSGETSRTANGCLASPRSFSLSHSKPSSGSRDTSEGSHVLDCEATLLPSESVGVVASTHSSTVSSYASEAQGRAAEEATNCATAGGATVGSKMTLLVSLIMRCTPSRRGPPHSASPTEDGAADAERLPPLELYPPLVSPSSIEEASCGVGYDVPSAHHDDMYAMKDITVAVKEDVNQRRGALAKEPTLPASTASRRTQHTKWSMHPSPVSAWLLGSSAVGASLSTALWRAALRSRPAMHTPCSCVSARAEQHSVQVLSRVLANGSAVSTKVLAMRSWAEFERASVSFPSTWSASVSAHLSAVPPSLTTDSTTLRGPSMLHLTLPPLPDQTSVGPASIAYINRAPSRPAATAEEVVARQPCDVWRLARCYAHFERAVEQRGEDGVWSARGISSLATWDSVKLVVAAGVASRDAESSTDEGCEDGGAWLLPSFTLDVVPDTLDTPSPASPQVTSTFPFSPVVSVLRAEKEEEVFTSAVMWALEMMTGVR | soluble
LRRTALNGRFCRLEPLDVDRHAADLFAAYALGDNSDWTWLASTRPESVTATAHWIAGKVNDDVLVPYAVVDLRSEQAVGIVSYMAIEREMGTVEIGHVTWSRRMKNTPLGTEAVWLLLKNGFDHGYRRLEWKCDSMNVASRRAAERLGFSWEGRLRQRLVRKGRTRDSDMLSIIDGEWPARD | not soluble
MSLTADPPACTVPAAGGASTHKLVNAGAEKMIFKIKSSNNNEYRITPVFGFVDPSGSKDITITRTAGAPKEDKLVVHFAAAPADATDAQAAFAAITPAGTITIPMSATA | soluble
MQPTSITVASYNLRNANGGDSINGNGWGQRYPVIAQIVQYHDFDIFGTQECFIHQLKDMKEALPGYDYIGVGRDDGKEKGEHSAIFYRTDKFDVIEKGDFWLSETPDVPSKGWDAVLPRICSWGHFKCKDTGFEFLFFNLHMDHIGKKARVESAFLVQDKMKELGKGKELPAILTGDFNVDQTHQSYDAFVSKGVLCDSYEKAGFRYAINGTFNDFDPNSFTESRIDHIFVSPSFQVKRYGVLTDTYRSIVGKGEKKQANDCPEEIDIKTYQARTPSDHFPVKVELEFDQRQQKLEHHHHHH | soluble
MGHHHHHHSHMRLLKSELGSFITDYFQNQLLAKGLFFVEEKIKLCEGENRIEVLAEVWDHFFTETLPTLQAIFYPVQSVHEPTGPSESYLQLEELVKQVVSPFLGISGDRSFSGPTYTLARRHSRVRPKVTVLNYASPITAVSRPLNEMVLTPLTEQEGEAYLEKCGSVRRHTVANAHSDIQLLAMATMMHSGLGEEASSENKCLLLPPSFPPPHRQCSSEPNITDNPDGLEEGARGSQEGSELNCASLS | not soluble
MAFSVAYDLIPNKLIKDIDEMNQWLHDKINRAVYLVGFATQQSDYEYKLYELFKALDELEERLKKQLFLFGNQLTESDLYLLATLERFDNIYFCLFKCSLKRIADYPALFRYHNQLRGMESLASTYQPVLTKEHYFMSTMHVLGLEHHHHHH | not soluble
GSHMVMNTHPYQSEAVSDVWSLSKTSMTFQPKKASLQPLTISLDELFSSRGEFISVGGNGRMSHKEAILLGLRYKKLYNQARVKYSL | soluble
